B1: scFv-yeast clone 3_3 (scFv, V domains shown)
VH: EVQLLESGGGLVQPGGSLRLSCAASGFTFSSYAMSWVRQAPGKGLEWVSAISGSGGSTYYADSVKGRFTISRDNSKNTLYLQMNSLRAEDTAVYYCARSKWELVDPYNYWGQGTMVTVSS
VL: NFMLTQPHSVSESPGKTITISCTRSSGSIAGNYVQWYQQRPGSAPIIVIYEDNQRPSGVPDRFSGSIDSSSNSASLTISRLKTEDEADYYCQSYEASNVVFGGGTKLTVL
notes: as the stretch N-terminal of the HCDR3 of m4; HCDR3 of clone 3_3 (same as 10_4); as the stretch C-terminal of the HCDR3 of m4; also called 10_4; not shown: HA, C-terminal, kept
B2: mAb 3_14 (IgG4 converted from scFv 3_14) (antibody, V domains shown)
VH: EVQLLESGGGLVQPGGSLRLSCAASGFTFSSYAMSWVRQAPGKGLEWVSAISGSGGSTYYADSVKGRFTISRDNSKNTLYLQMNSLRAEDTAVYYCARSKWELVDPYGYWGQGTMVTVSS
VL: B1 VL
notes: as the VH stretch before the HCDR3 of m14; HCDR3 of 3_14; T to S at position 1 and D to G at position 10 against the wild type; as the VH stretch after the HCDR3 of m14; as the light chain of m14; IgG4; also called IgG 3_14; source: EBNA 293 cells, cotransfected (pEU8.2 and pEU4.2), purified from the medium (protein A); copies: 2 + 2
B3: mAb 3_17 (IgG4 converted from scFv 3_17) (antibody, V domains shown)
VH: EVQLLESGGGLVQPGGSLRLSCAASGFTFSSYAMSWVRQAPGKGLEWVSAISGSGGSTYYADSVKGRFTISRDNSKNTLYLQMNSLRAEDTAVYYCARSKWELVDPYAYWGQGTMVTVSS
VL: B1 VL
notes: as the VH stretch before the HCDR3 of m14; HCDR3 of 3_17; T to S at position 1 and D to A at position 10 against the wild type; as the VH stretch after the HCDR3 of m14; as the light chain of m14; IgG4; also called IgG 3_17; source: EBNA 293 cells, cotransfected (pEU8.2 and pEU4.2), purified from the medium (protein A); copies: 2 + 2
B4: scFv-yeast clone 3_7 (scFv, V domains shown)
VH: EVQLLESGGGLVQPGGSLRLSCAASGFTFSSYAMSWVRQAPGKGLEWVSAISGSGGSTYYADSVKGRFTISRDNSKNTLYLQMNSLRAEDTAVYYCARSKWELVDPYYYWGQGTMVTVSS
VL: B1 VL
notes: as the stretch N-terminal of the HCDR3 of m4; HCDR3 of clone 3_7; as the stretch C-terminal of the HCDR3 of m4; not shown: HA, C-terminal, kept
B5: mAb 3_7 (IgG4 converted from scFv 3_7) (antibody, V domains shown)
VH: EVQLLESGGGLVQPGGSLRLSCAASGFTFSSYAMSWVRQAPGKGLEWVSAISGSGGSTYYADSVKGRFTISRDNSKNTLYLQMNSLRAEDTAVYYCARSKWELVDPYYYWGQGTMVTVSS
VL: B1 VL
notes: as the VH stretch before the HCDR3 of m14; HCDR3 of 3_7; T to S at position 1 and D to Y at position 10 against the wild type; as the VH stretch after the HCDR3 of m14; as the light chain of m14; IgG4; also called IgG 3_7; source: EBNA 293 cells, cotransfected (pEU8.2 and pEU4.2), purified from the medium (protein A); copies: 2 + 2
B6: mAb 10_3 (IgG4 converted from scFv 10_3) (antibody, V domains shown)
VH: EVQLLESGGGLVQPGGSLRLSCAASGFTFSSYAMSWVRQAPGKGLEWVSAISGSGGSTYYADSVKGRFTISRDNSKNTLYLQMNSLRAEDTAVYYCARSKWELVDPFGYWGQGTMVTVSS
VL: B1 VL
notes: as the VH stretch before the HCDR3 of m14; HCDR3 of 10_3; T to S at position 1, Y to F at position 9 and D to G at position 10 against the wild type; as the VH stretch after the HCDR3 of m14; as the light chain of m14; IgG4; also called IgG 10_3; antibody 10_3; source: EBNA 293 cells, cotransfected (pEU8.2 and pEU4.2), purified from the medium (protein A); copies: 2 + 2
B7: mAb 3_3 (IgG4 converted from scFv 3_3) (antibody, V domains shown)
VH: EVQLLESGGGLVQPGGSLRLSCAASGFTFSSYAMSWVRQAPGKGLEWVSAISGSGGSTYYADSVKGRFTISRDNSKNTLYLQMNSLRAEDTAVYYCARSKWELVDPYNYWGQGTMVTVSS
VL: B1 VL
notes: as the VH stretch before the HCDR3 of m14; HCDR3 of 3_3; T to S at position 1 and D to N at position 10 against the wild type; as the VH stretch after the HCDR3 of m14; as the light chain of m14; IgG4; also called IgG 3_3; source: EBNA 293 cells, cotransfected (pEU8.2 and pEU4.2), purified from the medium (protein A); copies: 2 + 2
B8: scFv-yeast clone 3_17 (scFv, V domains shown)
VH: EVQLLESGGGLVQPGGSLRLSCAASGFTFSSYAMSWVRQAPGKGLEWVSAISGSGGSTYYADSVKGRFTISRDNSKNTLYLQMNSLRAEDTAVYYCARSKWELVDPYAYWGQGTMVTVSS
VL: B1 VL
notes: as the stretch N-terminal of the HCDR3 of m4; HCDR3 of clone 3_17; as the stretch C-terminal of the HCDR3 of m4; not shown: HA, C-terminal, kept
B9: scFv-yeast clone 10_3 (scFv, V domains shown)
VH: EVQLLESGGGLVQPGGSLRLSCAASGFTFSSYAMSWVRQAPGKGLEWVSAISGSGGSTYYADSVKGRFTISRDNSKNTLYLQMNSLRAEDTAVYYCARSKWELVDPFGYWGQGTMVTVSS
VL: B1 VL
notes: as the stretch N-terminal of the HCDR3 of m4; HCDR3 of clone 10_3; as the stretch C-terminal of the HCDR3 of m4; not shown: HA, C-terminal, kept
B10: scFv-yeast clone 3_14 (scFv, V domains shown)
VH: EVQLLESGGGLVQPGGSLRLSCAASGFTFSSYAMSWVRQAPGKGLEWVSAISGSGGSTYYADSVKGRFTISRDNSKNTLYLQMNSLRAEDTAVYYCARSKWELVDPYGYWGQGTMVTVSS
VL: B1 VL
notes: as the stretch N-terminal of the HCDR3 of m4; HCDR3 of clone 3_14 (same as 10_2); as the stretch C-terminal of the HCDR3 of m4; also called 10_2; not shown: HA, C-terminal, kept
B11: scFv-yeast clone 10_12 (scFv, V domains shown)
VH: not shown
VL: B1 VL
notes: as the stretch N-terminal of the HCDR3 of m4; HCDR3 of clone 10_12; as the stretch C-terminal of the HCDR3 of m4; not shown: HA, C-terminal, kept

Legend:
[1] = molecular target: T1, recombinant human PD-L1, Fc-tagged (rhPD-L1-Fc) (Homo sapiens, UniProt Q9NZQ7); assay: flow cytometry on cells; scFv displayed on yeast, titration with rhPD-L1-Fc (10 pM to 10 nM plus 30 nM), PBS 0.5% BSA, room temperature; binding MFI normalised on scFv expression; apparent KD = half-saturating antigen concentration; details: one partner purified
T1 construct: human PD-L1 (programmed death ligand-1) extracellular domain, linked to the Fc region of human IgG1; soluble disulfide-linked homodimer; also called dimeric rhPD-L1-Fc; dimeric PD-L1; source: bought: R&D Systems

[2] = molecular target: T1, recombinant human PD-L1, Fc-tagged …; assay: SPR; Biacore X100, 25°C, HBS-EP pH 7.4; dimeric rhPD-L1-Fc (300 RU) immobilised by amine coupling on CM5, IgG as analyte (12.5-0.39 nM wild type, 6.25-0.39 nM mutated mAbs); 1:1 Langmuir; apparent constants (KD2) of bivalent binding; details: both partners purified

T1 sequence (Q9NZQ7 19-238): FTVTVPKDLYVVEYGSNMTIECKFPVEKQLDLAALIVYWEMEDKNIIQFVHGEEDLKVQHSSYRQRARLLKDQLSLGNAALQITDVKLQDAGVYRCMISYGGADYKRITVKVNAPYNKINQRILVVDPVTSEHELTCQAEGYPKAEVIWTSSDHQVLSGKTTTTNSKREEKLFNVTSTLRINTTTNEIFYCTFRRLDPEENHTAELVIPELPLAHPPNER

Binder	Kd [1] [nM]	Kd [2] [nM]	koff [2] [s⁻¹]	kon [2] [M⁻¹ s⁻¹]
B1	< 1			
B2		0.172	0.000176	1.05e+06
B3		0.165	0.000159	1.01e+06
B4	< 1			
B5		0.287	0.000287	1.03e+06
B6		0.139	0.000148	1.1e+06
B7		0.174	0.000193	1.14e+06
B8	< 1			
B9	< 1			
B10	< 1			
B11	< 1			

— article PMC6959147 (BioMed Research International, 2019)
